B1: human dehydrodolichyl diphosphate synthase (DHDDS), full-length homodimer (Homo sapiens) (protein)
chain: MSWIKEGELSLWERFCANIIKAGPMPKHIAFIMDGNRRYAKKCQVERQEGHSQGFNKLAETLRWCLNLGILEVTVYAFSIENFKRSKSEVDGLMDLARQKFSRLMEEKEKLQKHGVCIRVLGDLHLLPLDLQELIAQAVQATKNYNKCFLNVCFAYTSRHEISNAVREMAWGVEQGLLDPSDISESLLDKCLYTNRSPHPDILIRTSGEVRLSDFLLWQTSHSCLVFQPVLWPEYTFWNLFEAILQFQMNHSVLQKARDMYAEERKRQQLERDQATVTEQLLREGLQASGDAQLRRTRLHKLSARREERVQGFLQALELKRADWLARLGTASA
notes: full-length; expressed in E. coli T7 express from pET-32b as thioredoxin-6xHis fusion, tag and fusion removed by TEV protease; without NgBR
B2: Dehydrodolichyl diphosphate synthase (DHDDS), full-length human (enzyme, UniProt Q86SQ9 1-333, looked up)
chain: MSWIKEGELSLWERFCANIIKAGPMPKHIAFIMDGNRRYAKKCQVERQEGHSQGFNKLAETLRWCLNLGILEVTVYAFSIENFKRSKSEVDGLMDLARQKFSRLMEEKEKLQKHGVCIRVLGDLHLLPLDLQELIAQAVQATKNYNKCFLNVCFAYTSRHEISNAVREMAWGVEQGLLDPSDISESLLDKCLYTNRSPHPDILIRTSGEVRLSDFLLWQTSHSCLVFQPVLWPEYTFWNLFEAILQFQMNHSVLQKARDMYAEERKRQQLERDQATVTEQLLREGLQASGDAQLRRTRLHKLSARREERVQGFLQALELKRADWLARLGTASA
notes: Dehydrodolichyl diphosphate synthase (DHDDS), human, UniProt Q86SQ9, full length; synthesized gene cloned into pET-32b between NdeI and BamHI; Expressed as a TRX fusion with a 6xHis-tag and a TEV site; the tag and the fusion were removed by TEV protease; also called hDHDDS; human DHDDS; source: E. coli T7 express, purified (TALON-Superflow, TEV cleavage, second TALON-Superflow, Superdex-200 SEC)

Assays:
purified protein [1] = substrate: C=C(C)CCO[P@@](=O)(O)OP(=O)(O)O; assay: purified protein; details: 10 μM FPP, 0.5 μM protein, labelled compound (^14C), Tris-HCl pH 7.5, 150 mM NaCl, 20 mM β-mercaptoethanol, 0.1% Triton X-100, 30 °C, homodimer without NgBR
purified protein [2] = substrate: CC(C)=CCC/C(C)=C/CC/C(C)=C/CO[P@@](=O)(O)OP(=O)(O)O; assay: purified protein; type: biochemical, Homo sapiens; details: 20 μM ^14C-IPP, 0.1 μM protein, Tris-HCl pH 7.5, 150 mM NaCl, 20 mM β-mercaptoethanol, 0.1% Triton X-100, 30 °C, homodimer without NgBR
[3] = target: the molecule itself; assay: SEC-MALS; Superdex-200 increase 10/300 GL; Tris-HCl pH 7.5, 150 mM NaCl, 20 mM beta-mercaptoethanol, 0.02% Triton X-100; sample 2 mg/mL, 50 uL

Protein	Km (purified protein [1]) [µM]	kcat (purified protein [1]) [s⁻¹]	Km (purified protein [2]) [µM]	kcat (purified protein [2]) [s⁻¹]	stoichiometry N [3]
B1	9.3 ± 2.8	0.0011 ± 0.0001	0.45 ± 0.1	0.0011 ± 0.0001	
B2					2
